The subject of assay [1] is P. aeruginosa strains. The assay is described as follows: MIC and MBC, modified CLSI broth microdilution, CAA medium. It counts as cell-based. The conditions noted are these: strain 453, FpvA type I. Here is the method: The MIC and MBC values were calculated using a modified version of the broth microdilution assay as previously described by the Clinical and Laboratory Standards Institute (CLSI) (45). The specific modifications were to the bacterial concentration and growth medium used. […] CAA medium was used for Gram-negative bacteria to simulate low iron conditions. Alternatively, MHB was used for Gram-positive bacteria due to their inability to grow in CAA medium. Bacterial growth was assessed by measuring the OD600 nm using a SpectraMax M5 microplate reader (Molecular Devices). The MIC was defined as the lowest antimicrobial concentration that inhibits bacterial growth. To determine the MBC, the contents from each well originating from the MIC microtiter plate was plated on CAA agar to quantitate bacterial viability. The MBC was defined as the lowest antimicrobial concentration required to kill ≥99.9% of the initial bacterial inoculum. Growth and sterility controls were included.

The target in assay [2] is FpvAII receptor (Pseudomonas aeruginosa). The assay is described as follows: cell-based or functional assay.
Assay [3] concerns the target FpvAIII receptor (Pseudomonas aeruginosa). Description: cell-based or functional assay.
The target in assay [4] is ferripyoverdine A type I (FpvAI) receptor (Pseudomonas aeruginosa) (UniProt P48632). Description: cell-based or functional assay.
Assay [5] concerns pseudomonal PG (autoclaved P. aeruginosa). Description: Muralytic plate lysis assay on autoclaved Pseudomonas. The conditions noted are these: 25 pmol spotted. It counts as biochemical.
The test system of another assay is P. aeruginosa strain 453. Description: Cell viability assays with 0.5 μM antimicrobial.
Assay [6] has as its system P. aeruginosa strains. The assay is described as follows: MIC, CLSI broth microdilution in CAA medium with EDDHA.
Description: The FpvA receptor type for all P. aeruginosa strains used was determined using multiplex PCR, as previously described (67). […] CAA medium consisting of 0.5 mg/ml EDDHA was used instead of MHB. All P. aeruginosa strains were initially inoculated in CAA medium and grown overnight at 37° C. with aeration. The bacteria were then pelleted, washed and resuspended in CAA medium with EDDHA. Using a 96-well U-bottom microtiter plate, P. aeruginosa at a final concentration of 5×10^5 CFU/ml were incubated statically at 37° C. with 0.002-256 μg/ml lysocin in CAA medium with EDDHA for a total of 48 h. Growth (bacteria incubated in growth medium absent lysocin) and sterility controls (growth medium only) were included for each dataset. At the culmination of the experiment, each plate was visually inspected for bacterial growth. All samples were assayed in triplicate. The MIC was defined as the lowest concentration of lysocin that inhibited observable bacterial growth.
[7] abbreviates: Pseudomonas aeruginosa, read-out: MBC.
The mark [8] stands for this setting: Pseudomonas aeruginosa, read-out: MIC.

In brackets after ≈: the same amount, converted by molar mass. Where two headings read alike, the source gives them in different places. Bounds are passed on as bounds.

Description for P. aeruginosa strain 453: P. aeruginosa strain 453 were grown under iron-depleted conditions (see Bacterial Strains and Growth Conditions). The bacteria were harvested, washed and resuspended in fresh CAA medium with 0.5 mg/ml EDDHA. Using a 96-well flat-bottomed microtiter plate, the bacteria at ˜10^6 CFU/ml were incubated statically at 37° C. with either growth medium only (untreated control) or 0.5 μM purified antimicrobial. A 2 h incubation was used for the single time point experiments, whereas a 4 or 6 h incubation was used for the multiple time point assays. At various time points, an aliquot was removed from each sample, serially diluted and plated on CAA agar. After incubating the agar plates for up to 48 h at 37° C., colonies were counted in order to quantitate the CFU/ml concentration of surviving bacterial cells. Modifications were introduced to the aforementioned cell viability assay protocol for the experiment using P. aeruginosa grown in the presence of varying free iron concentrations. First, P. aeruginosa strain 453 were grown using iron-depleted or iron-rich conditions (CAA medium supplemented with 100 μM FeSO4) at 37° C. with aeration for a total of 16-18 h and subsequently assayed for lysocin sensitivity in PBS, pH 7.4. For the experiment analyzing lysocin activity in the presence of lung surfactant or serum, P. aeruginosa were incubated with or without lysocin in beractant ([sequence]; Abbvie) or HuS diluted 1:1 with 20 mM sodium phosphate, pH 7.0.

For `NC[C@H]1O[C@H](O[C@H]2[C@H](O)[C@@H](O[C@H]3O[C@H](CO)[C@@H](O)[C@H](N)[C@H]3O)[C@H](N)C[C@@H]2N)[C@H](N)C[C@@H]1O` [Tobramycin, tobramycin, reference compound], in the assay on P. aeruginosa strains [1] (setting [7]), the MBC is 0.25 µg/mL (≈ 0.535 µM). The MIC in the assay on P. aeruginosa strains [1] (setting [8]) was found to be 0.125 µg/mL (≈ 0.267 µM).

In the case of PyS2-I-GN3 lysocin, in assay [2], the MIC, P. aeruginosa strain 445 (FpvAII) was > 256 µg/mL; the MIC, P. aeruginosa strain 448 (FpvAII) is > 256 µg/mL; the MIC, P. aeruginosa strain 451 (FpvAII) is > 256 µg/mL; the MIC, P. aeruginosa strain AR468 (FpvAII) is > 256 µg/mL. In assay [3], the MIC, P. aeruginosa strain 443 (FpvAIII) is > 256 µg/mL; the MIC, P. aeruginosa strain 450 (FpvAIII) is > 256 µg/mL; the MIC, P. aeruginosa strain AR471 (FpvAIII) is > 256 µg/mL. In assay [4], the MIC, P. aeruginosa strain 447 (FpvAI) was 8 µg/mL; the MIC, P. aeruginosa strain 453 (FpvAI) amounted to 4 µg/mL; the MIC, P. aeruginosa strain AR465 (FpvAI) came to 4 µg/mL; the MIC, P. aeruginosa strain AR469 (FpvAI) came out at 8 µg/mL. In addition, in assay [4], the MIC, P. aeruginosa strain AR470 (FpvAI) came out at 4 µg/mL; the MIC, P. aeruginosa strain AR474 (FpvAI) was found to be 4 µg/mL; the MIC, P. aeruginosa strain PAO1 (FpvAI) is 8 µg/mL.

Consider “PyS2-I-PlyPa03: PyS2 aa 1-209, GSx3 linker, P. aeruginosa lysin PlyPa03 (aa 2-144)”, for which the “muralytic activity (clearing zones) on autoclaved P. aeruginosa” value in assay [5] was “degraded pseudomonal PG”. In addition, in the assay with P. aeruginosa strain 453 (1 h, iron-chelated CAA medium), the “decrease in viability of Pseudomonas” value was 3.6 log10. In addition, the “killing of Pseudomonas” value with P. aeruginosa strain 453 (2 h, 50% HuS) was 4.5 log10. For the same compound, the “killing of P. aeruginosa” value stood at 3.6 log10 in the assay on P. aeruginosa strain 453 (2 h, 50% beractant (SURVANTA)) and 6.2 log10 with P. aeruginosa strain 453 (4 h, iron-chelated CAA medium). Further, in the assay with P. aeruginosa strains [6] (P. aeruginosa strains expressing FpvAII and FpvAIII), the activity towards strains result is recorded as “ineffective”. For the same compound, the MIC was >256 µg/mL with P. aeruginosa strains [6] (strain 443, FpvAIII); >256 µg/mL in the assay on P. aeruginosa strains [6] (strain 445, FpvAII); 4 µg/mL with P. aeruginosa strains [6] (strain 447, FpvAI); >256 µg/mL with P. aeruginosa strains [6] (strain 448, FpvAII); >256 µg/mL in the assay with P. aeruginosa strains [6] (strain 450, FpvAIII); >256 µg/mL against P. aeruginosa strains [6] (strain 451, FpvAII). The MIC was 0.25 µg/mL in the assay on P. aeruginosa strains [6] (strain 453, FpvAI); 2 µg/mL in the assay on P. aeruginosa strains [6] (strain AR465, FpvAI); >256 µg/mL in the assay with P. aeruginosa strains [6] (strain AR468, FpvAII); 4 µg/mL in the assay with P. aeruginosa strains [6] (strain AR469, FpvAI); 8 µg/mL against P. aeruginosa strains [6] (strain AR470, FpvAI); >256 µg/mL against P. aeruginosa strains [6] (strain AR471, FpvAIII). Moreover, the MIC is 4 µg/mL in the assay with P. aeruginosa strains [6] (strain AR474, FpvAI) and 4 µg/mL in the assay on P. aeruginosa strains [6] (strain PAO1, FpvAI).

With PyS2-I-GN4 lysocin, in assay [2], the MIC, P. aeruginosa strain 445 (FpvAII) was > 256 µg/mL; the MIC, P. aeruginosa strain 448 (FpvAII) was > 256 µg/mL; the MIC, P. aeruginosa strain 451 (FpvAII) was > 256 µg/mL; the MIC, P. aeruginosa strain AR468 (FpvAII) was > 256 µg/mL. Besides, in assay [3], the MIC, P. aeruginosa strain 443 (FpvAIII) was > 256 µg/mL; the MIC, P. aeruginosa strain 450 (FpvAIII) was > 256 µg/mL; the MIC, P. aeruginosa strain AR471 (FpvAIII) is > 256 µg/mL. In assay [4], this compound showed an MIC, P. aeruginosa strain 447 (FpvAI) of 4 µg/mL; an MIC, P. aeruginosa strain 453 (FpvAI) of 0.25 µg/mL; an MIC, P. aeruginosa strain AR465 (FpvAI) of 4 µg/mL; an MIC, P. aeruginosa strain AR469 (FpvAI) of 8 µg/mL. In assay [4], this compound returned an MIC, P. aeruginosa strain AR470 (FpvAI) of 8 µg/mL; an MIC, P. aeruginosa strain AR474 (FpvAI) of 4 µg/mL; an MIC, P. aeruginosa strain PAO1 (FpvAI) of 4 µg/mL.

Take PyS2-I-PlyPa03 lysocin: in assay [2], the MIC, P. aeruginosa strain 445 (FpvAII) is > 256 µg/mL; the MIC, P. aeruginosa strain 448 (FpvAII) is > 256 µg/mL; the MIC, P. aeruginosa strain 451 (FpvAII) was > 256 µg/mL; the MIC, P. aeruginosa strain AR468 (FpvAII) is > 256 µg/mL. For the same compound, in assay [3], the MIC, P. aeruginosa strain 443 (FpvAIII) is > 256 µg/mL; the MIC, P. aeruginosa strain 450 (FpvAIII) was > 256 µg/mL; the MIC, P. aeruginosa strain AR471 (FpvAIII) was > 256 µg/mL. For the same compound, in assay [4], the MIC, P. aeruginosa strain 447 (FpvAI) came out at 4 µg/mL; the MIC, P. aeruginosa strain 453 (FpvAI) worked out at 0.25 µg/mL; the MIC, P. aeruginosa strain AR465 (FpvAI) amounted to 2 µg/mL; the MIC, P. aeruginosa strain AR469 (FpvAI) stood at 4 µg/mL. Besides, in assay [4], the MIC, P. aeruginosa strain AR470 (FpvAI) turned out to be 8 µg/mL; the MIC, P. aeruginosa strain AR474 (FpvAI) was 4 µg/mL; the MIC, P. aeruginosa strain PAO1 (FpvAI) was 4 µg/mL.

Take colistin [reference compound]: in the assay on P. aeruginosa strains [1], the MBC is 0.5 µg/mL and the MIC came out at 0.5 µg/mL.

Regarding `C[C@@H](O)[C@H]1C(=O)N2C(C(=O)O)=C(S[C@@H]3CN[C@H](C(=O)N(C)C)C3)[C@H](C)[C@H]12` [Meropenem, meropenem, reference compound], the MBC in the assay on P. aeruginosa strains [1] (setting [7]) was 8 µg/mL (≈ 20.9 µM). Besides, in the assay with P. aeruginosa strains [1] (setting [8]), the MIC amounted to 8 µg/mL (≈ 20.9 µM).

Turning to “CEWL: Chicken egg white lysozyme, positive control for muralytic activity [reference compound]”, the “muralytic activity (clearing zones) on autoclaved P. aeruginosa” value in assay [5] is “Clearing zones”.

Take PyS2-GN4 lysocin: in assay [2], the MIC, P. aeruginosa strain 445 (FpvA type II) is > 256 µg/mL; the MIC, P. aeruginosa strain 446 (FpvA type II) is > 256 µg/mL; the MIC, P. aeruginosa strain 448 (FpvA type II) was > 256 µg/mL; the MIC, P. aeruginosa strain 449 (FpvA type II) is > 256 µg/mL. Moreover, the MIC, P. aeruginosa strain 451 (FpvA type II) in assay [2] is > 256 µg/mL. Also, in assay [3], the MIC, P. aeruginosa strain 443 (FpvA type III) was > 256 µg/mL and the MIC, P. aeruginosa strain 450 (FpvA type III) was > 256 µg/mL. In assay [4], this compound returned an MBC, P. aeruginosa strain 453 (FpvA type I) of 0.25 µg/mL; an MIC, P. aeruginosa strain 452 (FpvA type I) of 4 µg/mL; an MIC, P. aeruginosa strain 453 (FpvA type I) of 0.25 µg/mL; an MIC, P. aeruginosa strain MDR-M-3 (FpvA type I) of 2 µg/mL. Moreover, the MIC, P. aeruginosa strain PAO1 (FpvA type I) in assay [4] was 2 µg/mL.
